Km and Ki data for two molecules are collected here from publication PMC6697735, “Generation of amine dehydrogenases with increased catalytic performance and substrate scope from ε-deaminating L-Lysine dehydrogenase” (Nature Communications, 2019).

The test system of one data set is CC(=O)c1ccccc1. The experiment in a line: purified protein. The conditions noted are these: NADH model: phenyl ring in the new hydrophobic cavity created by F173A.
The next data set has as its system O=Cc1ccccc1. Kind of data set: purified protein. The conditions noted are these: NADH.
The target in data set [1] is T1, LE-AmDH-v1 (ε-deaminating L-lysine dehydrogenase LysEDH F173A) (Geobacillus stearothermophilus, UniProt Q9AJC6, F173A).
T1 construct: gene lysDH
Kind of data set: steady-state kinetics, Lineweaver-Burk competitive product inhibition, NADH oxidation at […] nm, […] °C. It counts as biochemical.

Broadly, the Km is the concentration of substrate that gives half-maximal velocity. In the case of “LE-AmDH-v1 (ε-deaminating L-lysine dehydrogenase LysEDH F173A) (Geobacillus stearothermophilus; F173A)”, the Km with CC(=O)c1ccccc1 came out at 5.5 ± 0.5 mM; with O=Cc1ccccc1 it was 4.9 ± 0.5 mM. In general, Ki refers to the equilibrium dissociation constant of an inhibitor or competing ligand from its target. Take `C[C@@H](N)c1ccccc1` [(R)-8b]: in data set [1], the Ki was 4.48 mM.
